One test has as its target PTEN_13 (human) (UniProt P60484). The experiment in a line: holdup assay; biotinylated PBM peptide saturating streptavidin resin (biotin resin as reference); tag-PDZ at 4 uM in crude E. coli lysate, 15 min, filtration, free tag-PDZ by capillary electrophoresis; singlicate; BI cut-off 0.20; BI converted into KD with the peptide concentration back-calculated from FP.
In test [1] the target is ARHGEF12-1, PDZ domain of ARHGEF12 (human) (UniProt Q9NZN5). In words: fluorescence polarisation; competitive: pre-formed complex of PDZ domain (>60-80% complex) and 50 nM fluorescent tracer peptide, increasing amount of unlabeled PTEN peptide (8 concentrations); 20 mM HEPES pH 7.5, 150 mM NaCl, 0.5 mM TCEP, 0.01% Tween 20; triplicate; competitive binding model (ProFit); apparent. A general note: Polarisation of emitted light reports the rotation of a fluorescent probe.
Chain of ARHGEF12-1, PDZ domain of ARHGEF12 (human) (Q9NZN5 whole entry, the tested form may be a part): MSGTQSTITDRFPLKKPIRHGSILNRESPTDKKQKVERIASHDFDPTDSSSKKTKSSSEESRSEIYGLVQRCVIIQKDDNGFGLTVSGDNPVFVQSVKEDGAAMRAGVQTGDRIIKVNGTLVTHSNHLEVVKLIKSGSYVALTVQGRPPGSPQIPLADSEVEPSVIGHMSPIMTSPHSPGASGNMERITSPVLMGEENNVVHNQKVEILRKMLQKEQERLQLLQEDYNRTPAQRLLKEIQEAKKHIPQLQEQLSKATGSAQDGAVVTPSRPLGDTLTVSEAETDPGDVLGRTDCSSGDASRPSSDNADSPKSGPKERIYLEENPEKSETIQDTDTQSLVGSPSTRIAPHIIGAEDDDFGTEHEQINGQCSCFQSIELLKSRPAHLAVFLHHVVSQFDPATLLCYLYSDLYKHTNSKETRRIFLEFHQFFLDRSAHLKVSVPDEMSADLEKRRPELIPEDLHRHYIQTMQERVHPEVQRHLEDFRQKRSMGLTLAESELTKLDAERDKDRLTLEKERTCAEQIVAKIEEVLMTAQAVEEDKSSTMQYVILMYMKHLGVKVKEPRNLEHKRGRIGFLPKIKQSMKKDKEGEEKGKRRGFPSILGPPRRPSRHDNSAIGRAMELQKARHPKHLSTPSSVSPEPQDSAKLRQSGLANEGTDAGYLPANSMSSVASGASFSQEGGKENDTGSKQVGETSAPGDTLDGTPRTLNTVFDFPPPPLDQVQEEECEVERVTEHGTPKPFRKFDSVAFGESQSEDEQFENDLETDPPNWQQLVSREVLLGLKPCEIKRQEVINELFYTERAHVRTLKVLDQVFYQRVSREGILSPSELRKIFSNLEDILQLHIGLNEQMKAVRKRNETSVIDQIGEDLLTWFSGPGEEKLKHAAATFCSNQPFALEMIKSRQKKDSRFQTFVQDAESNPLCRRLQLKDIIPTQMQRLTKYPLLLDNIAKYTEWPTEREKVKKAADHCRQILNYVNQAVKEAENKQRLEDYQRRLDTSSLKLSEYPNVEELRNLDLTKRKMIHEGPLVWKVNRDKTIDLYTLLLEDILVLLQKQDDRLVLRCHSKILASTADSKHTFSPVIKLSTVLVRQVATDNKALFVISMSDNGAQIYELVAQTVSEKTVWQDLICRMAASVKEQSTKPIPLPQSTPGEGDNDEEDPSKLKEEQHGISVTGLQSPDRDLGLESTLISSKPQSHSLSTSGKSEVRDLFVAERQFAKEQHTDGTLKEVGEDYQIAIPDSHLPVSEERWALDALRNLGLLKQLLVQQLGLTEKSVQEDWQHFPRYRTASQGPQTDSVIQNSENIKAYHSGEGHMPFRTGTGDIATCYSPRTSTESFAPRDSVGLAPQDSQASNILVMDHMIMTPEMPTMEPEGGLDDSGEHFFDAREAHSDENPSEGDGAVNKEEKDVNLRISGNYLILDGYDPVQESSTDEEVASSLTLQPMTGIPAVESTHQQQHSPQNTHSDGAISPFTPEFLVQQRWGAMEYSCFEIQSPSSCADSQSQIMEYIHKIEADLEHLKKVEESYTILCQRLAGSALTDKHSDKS

The target in test [2] is GOPC-1, PDZ domain of GOPC (human) (UniProt Q9HD26). The description is as above.
Test [3] concerns the target MAST1-1, PDZ domain of MAST1 (human) (UniProt Q9Y2H9). Described as above.
Test [4] concerns the target SNTA1-1, PDZ domain of SNTA1 (human) (UniProt Q13424). Described as above.
Test [5] addresses SNTB1-1, PDZ domain of SNTB1 (human) (UniProt Q13884). The description is as above.
The target of test [6] is SNX27-1, PDZ domain of SNX27 (human) (UniProt Q96L92). The description is as above.
Another test has as its target PTEN_Ac (human) (UniProt P60484). The experiment in a line: holdup assay; biotinylated PBM peptide saturating streptavidin resin (biotin resin as reference); tag-PDZ at 4 uM in crude E. coli lysate, 15 min, filtration, free tag-PDZ by capillary electrophoresis; singlicate; BI cut-off 0.20; BI converted into KD with the peptide concentration back-calculated from FP.
Test [7] concerns the target fpRSK1, fluorescein-labelled phosphorylated RSK1 PBM peptide. The experiment in a line: fluorescence polarisation; direct: N-terminally fluorescein-labelled PBM peptide (tracer) with increasing amounts of MBP-PDZ; 384-well plates; triplicate; direct binding model (ProFit).
A further test concerns the target SNX27-1 (human). In words: fluorescence polarisation; competitive: 50 nM fluorescent tracer peptide pre-formed with the PDZ domain (>60-80% complex), unlabeled peptide added at 8 concentrations; 20 mM HEPES pH 7.5, 150 mM NaCl, 0.5 mM TCEP, 0.01% Tween 20; triplicate; apparent.
In another test the target is MAST1-1 (human). The test is described as above.
In a further test the target is MAST2-1 (human). The description is as above.
The target in the next test is PTEN_11 (human) (UniProt P60484). The experiment in a line: holdup assay; biotinylated PBM peptide saturating streptavidin resin (biotin resin as reference); tag-PDZ at 4 uM in crude E. coli lysate, 15 min, filtration, free tag-PDZ by capillary electrophoresis; singlicate; BI cut-off 0.20; BI converted into KD with the peptide concentration back-calculated from FP.
The next test has as its target PTEN_KR (human) (UniProt P60484). The test is described as above.
In test [8] the target is fRSK1, fluorescein-labelled RSK1 PBM peptide. The experiment in a line: fluorescence polarisation; direct: N-terminally fluorescein-labelled PBM peptide (tracer) with increasing amounts of MBP-PDZ; 384-well plates; triplicate; direct binding model (ProFit).
Test [9] deals with f16E6, fluorescein-labelled HPV16 E6 PBM peptide (HPV16). The description is as above.
In test [10] the target is GRID2IP-2, second PDZ domain of GRID2IP (human) (UniProt A4D2P6). The experiment in a line: fluorescence polarisation; competitive: pre-formed complex of PDZ domain (>60-80% complex) and 50 nM fluorescent tracer peptide, increasing amount of unlabeled PTEN peptide (8 concentrations); 20 mM HEPES pH 7.5, 150 mM NaCl, 0.5 mM TCEP, 0.01% Tween 20; triplicate; competitive binding model (ProFit); apparent.
Chain of GRID2IP-2, second PDZ domain of GRID2IP (human) (A4D2P6 279-356): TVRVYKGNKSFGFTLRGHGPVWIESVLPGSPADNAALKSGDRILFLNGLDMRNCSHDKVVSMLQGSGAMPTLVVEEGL

For test [11], the target named is HTRA1-1, PDZ domain of HTRA1 (human) (UniProt Q92743). Described as above.
Chain of HTRA1-1, PDZ domain of HTRA1 (human) (Q92743 23-480): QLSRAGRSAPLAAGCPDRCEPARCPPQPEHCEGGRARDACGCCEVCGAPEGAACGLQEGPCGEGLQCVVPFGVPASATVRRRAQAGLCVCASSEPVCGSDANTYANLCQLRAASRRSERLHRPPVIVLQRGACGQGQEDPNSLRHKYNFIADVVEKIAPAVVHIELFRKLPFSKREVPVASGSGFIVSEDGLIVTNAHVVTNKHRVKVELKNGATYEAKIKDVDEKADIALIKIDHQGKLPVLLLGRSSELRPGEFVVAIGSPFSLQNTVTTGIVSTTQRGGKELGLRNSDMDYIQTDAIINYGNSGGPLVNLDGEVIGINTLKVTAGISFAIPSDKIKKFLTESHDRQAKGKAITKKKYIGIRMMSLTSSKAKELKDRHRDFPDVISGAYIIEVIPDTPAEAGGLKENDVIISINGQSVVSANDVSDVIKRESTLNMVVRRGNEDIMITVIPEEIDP
The target in test [12] is MAST2-1, PDZ domain of MAST2 (human) (UniProt Q6P0Q8). The test is described as above.
Chain of MAST2-1, PDZ domain of MAST2 (human) (Q6P0Q8 whole entry, the tested form may be a part): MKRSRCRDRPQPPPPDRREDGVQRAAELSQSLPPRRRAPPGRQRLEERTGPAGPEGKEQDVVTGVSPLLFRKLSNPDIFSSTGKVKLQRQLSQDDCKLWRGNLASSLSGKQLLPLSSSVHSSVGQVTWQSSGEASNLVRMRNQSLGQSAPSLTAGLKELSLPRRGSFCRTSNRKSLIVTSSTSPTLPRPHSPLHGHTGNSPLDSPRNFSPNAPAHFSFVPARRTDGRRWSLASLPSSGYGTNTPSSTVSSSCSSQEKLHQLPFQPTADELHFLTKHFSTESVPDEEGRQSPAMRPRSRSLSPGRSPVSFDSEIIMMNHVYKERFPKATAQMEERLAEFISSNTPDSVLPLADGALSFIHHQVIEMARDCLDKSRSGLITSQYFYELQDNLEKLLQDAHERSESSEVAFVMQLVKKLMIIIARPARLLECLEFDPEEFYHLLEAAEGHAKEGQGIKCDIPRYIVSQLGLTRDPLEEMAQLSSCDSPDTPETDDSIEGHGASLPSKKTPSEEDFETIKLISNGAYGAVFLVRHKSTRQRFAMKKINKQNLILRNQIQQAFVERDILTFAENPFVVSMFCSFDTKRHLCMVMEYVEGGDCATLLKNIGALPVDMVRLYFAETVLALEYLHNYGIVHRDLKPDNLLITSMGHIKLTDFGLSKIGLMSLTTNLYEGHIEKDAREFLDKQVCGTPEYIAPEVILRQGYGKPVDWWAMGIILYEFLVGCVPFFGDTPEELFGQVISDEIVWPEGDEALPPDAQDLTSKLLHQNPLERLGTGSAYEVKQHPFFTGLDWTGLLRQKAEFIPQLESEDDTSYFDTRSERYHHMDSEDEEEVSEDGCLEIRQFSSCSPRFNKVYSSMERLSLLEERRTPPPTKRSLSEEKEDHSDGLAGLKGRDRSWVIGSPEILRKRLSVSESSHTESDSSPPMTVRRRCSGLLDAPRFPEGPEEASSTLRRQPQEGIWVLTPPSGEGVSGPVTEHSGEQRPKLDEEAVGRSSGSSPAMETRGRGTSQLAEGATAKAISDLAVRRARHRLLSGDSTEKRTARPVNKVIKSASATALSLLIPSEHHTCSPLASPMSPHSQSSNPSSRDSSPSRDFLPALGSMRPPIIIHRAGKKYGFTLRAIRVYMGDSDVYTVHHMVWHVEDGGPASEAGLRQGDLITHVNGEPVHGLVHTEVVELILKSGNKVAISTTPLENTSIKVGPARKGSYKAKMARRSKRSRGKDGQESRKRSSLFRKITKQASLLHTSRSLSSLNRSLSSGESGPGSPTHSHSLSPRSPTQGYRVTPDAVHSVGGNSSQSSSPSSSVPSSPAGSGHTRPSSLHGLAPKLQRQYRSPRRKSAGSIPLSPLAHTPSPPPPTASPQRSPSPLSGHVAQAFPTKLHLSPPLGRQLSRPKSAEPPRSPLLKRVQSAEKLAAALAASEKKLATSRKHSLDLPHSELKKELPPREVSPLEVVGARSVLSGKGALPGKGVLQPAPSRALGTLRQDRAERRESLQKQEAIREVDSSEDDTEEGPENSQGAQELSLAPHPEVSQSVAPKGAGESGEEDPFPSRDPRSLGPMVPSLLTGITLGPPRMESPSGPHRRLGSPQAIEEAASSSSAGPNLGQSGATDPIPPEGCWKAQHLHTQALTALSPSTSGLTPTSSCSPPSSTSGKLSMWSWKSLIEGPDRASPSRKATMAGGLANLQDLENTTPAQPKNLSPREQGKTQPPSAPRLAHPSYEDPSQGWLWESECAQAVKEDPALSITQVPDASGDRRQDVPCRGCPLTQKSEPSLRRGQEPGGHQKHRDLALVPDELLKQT
In test [13] the target is SNTG2-1, PDZ domain of SNTG2 (human) (UniProt Q9NY99). The description is as above.

Chain of SNTA1-1, PDZ domain of SNTA1 (human) (Q13424 whole entry, the tested form may be a part): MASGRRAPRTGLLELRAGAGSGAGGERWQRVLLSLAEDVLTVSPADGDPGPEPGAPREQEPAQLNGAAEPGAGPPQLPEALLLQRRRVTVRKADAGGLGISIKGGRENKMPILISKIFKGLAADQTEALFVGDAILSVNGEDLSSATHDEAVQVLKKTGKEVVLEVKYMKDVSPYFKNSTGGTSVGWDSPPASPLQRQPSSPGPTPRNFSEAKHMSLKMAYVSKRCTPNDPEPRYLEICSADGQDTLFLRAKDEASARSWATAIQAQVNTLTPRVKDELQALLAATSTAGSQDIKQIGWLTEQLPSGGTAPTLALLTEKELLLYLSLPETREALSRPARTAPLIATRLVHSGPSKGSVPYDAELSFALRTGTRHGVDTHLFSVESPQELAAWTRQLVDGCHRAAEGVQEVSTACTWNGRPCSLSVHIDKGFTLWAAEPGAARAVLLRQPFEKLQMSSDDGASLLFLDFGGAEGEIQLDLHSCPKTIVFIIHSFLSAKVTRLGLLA
Chain of SNTB1-1, PDZ domain of SNTB1 (human) (Q13884 whole entry, the tested form may be a part): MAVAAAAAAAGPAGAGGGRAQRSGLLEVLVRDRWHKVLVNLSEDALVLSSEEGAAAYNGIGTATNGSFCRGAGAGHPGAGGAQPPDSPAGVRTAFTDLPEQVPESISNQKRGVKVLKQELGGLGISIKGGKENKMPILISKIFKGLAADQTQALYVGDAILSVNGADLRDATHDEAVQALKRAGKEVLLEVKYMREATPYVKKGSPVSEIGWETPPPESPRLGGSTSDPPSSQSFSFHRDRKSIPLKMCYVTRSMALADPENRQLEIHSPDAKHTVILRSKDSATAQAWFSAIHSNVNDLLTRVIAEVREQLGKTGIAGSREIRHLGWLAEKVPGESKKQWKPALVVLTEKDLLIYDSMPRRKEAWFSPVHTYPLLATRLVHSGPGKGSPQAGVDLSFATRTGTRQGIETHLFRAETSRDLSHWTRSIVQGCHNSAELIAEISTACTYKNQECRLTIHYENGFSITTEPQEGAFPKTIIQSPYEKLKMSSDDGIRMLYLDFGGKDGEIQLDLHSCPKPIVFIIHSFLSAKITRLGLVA

Regarding SNTB2-1 (domain or fragment), the Kd with PTEN_13 (human) is 64 µM.
For “PTEN_11, 11-mer wild-type PDZ-binding motif peptide of PTEN”, the Kd stood at 113 µM in test [1]; 131 µM in test [2]; 10.9 µM in test [3]; 194 µM in test [4]; 67 µM in test [5]; 13.8 µM in test [6].
On to SNX27-1 (domain or fragment), for which the values for the Kd with PTEN_13 (human) and with PTEN_Ac (human) were 6 µM and 4 µM, respectively.
With “SNTA1-1, PDZ domain of SNTA1 (from UniProt Q13424 1-505) (domain or fragment)”, the Kd in [7] amounted to 20.4 µM.
For the substance “PTEN_KR (from UniProt P60484 393-403) (peptide)”, the Kd in the test with SNX27-1 (human) is 8 µM.
Consider “PTEN_11 (from UniProt P60484 393-403) (peptide)”, for which the Kd in the test with SNX27-1 (human) was 14 µM.
As to “PTEN_13 (from UniProt P60484 391-403) (peptide)”, the figures for the Kd in the test with MAST1-1 (human) and in the test with MAST2-1 (human) were 8 µM and 1 µM, respectively.
For MAST1-1 (domain or fragment), the results for the Kd with PTEN_11 (human), in the test with PTEN_Ac (human) and in the test with PTEN_KR (human) were 39 µM, 26 µM and 32 µM, respectively.
Substance “MAST2-1, PDZ domain of MAST2 (from UniProt Q6P0Q8 1-1798) (domain or fragment)” showed a Kd in [8] of 6.87 µM.
As to “PARD3-3 (from UniProt Q8TEW0 590-677) (domain or fragment)”, the Kd in the test with PTEN_11 (human) is 160 µM.
As to MAST3-1 (domain or fragment), the results for the Kd in the test with PTEN_11 (human), with PTEN_Ac (human) and in the test with PTEN_KR (human) were 241 µM, 85 µM and 82 µM, respectively.
In turn, “MAST1-1, PDZ domain of MAST1 (from UniProt Q9Y2H9 1-1570) (domain or fragment)” yielded a Kd in [9] of 7.52 µM.
Regarding “PTPN13-4 (from UniProt Q12923 1788-1868) (domain or fragment)”, the Kd with PTEN_Ac (human) was 10 µM.
With “PTEN_13, 13-mer wild-type PDZ-binding motif peptide of PTEN”, the Kd stood at 100 µM in [1]; 82.1 µM in [2]; 59.1 µM in test [10]; 25.3 µM in test [11]; 7.62 µM in [3]; 1.28 µM in test [12]. The Kd is 123 µM in test [4], 44.5 µM in test [5] and 7.95 µM in test [6].
For the substance “PTPN13-2 (from UniProt Q12923 1368-1452) (domain or fragment)”, the Kd with PTEN_11 (human) is 148 µM.
For “HTRA1-1, PDZ domain of HTRA1 (from UniProt Q92743 23-480) (domain or fragment)”, the Kd in [8] worked out at 64.8 µM.
Take “DLG1-2 (from UniProt Q12959 319-405) (domain or fragment)”: the Kd in the test with PTEN_Ac (human) is 36 µM.
Take “SNTB1-1, PDZ domain of SNTB1 (from UniProt Q13884 1-538) (domain or fragment)”: the Kd in [7] stood at 3.98 µM.
With “NHERF2-2 (from UniProt Q15599 150-230) (domain or fragment)”, in the test with PTEN_11 (human), the Kd was 35 µM.
For the substance “PTEN_KR, 11-mer PTEN PDZ-binding motif peptide with K402R”, the Kd amounted to 114 µM in [1]; 47.4 µM in test [2]; 36.2 µM in test [11]; 9.11 µM in [3]; 2.39 µM in test [12]; 65.1 µM in test [4]. Besides, the Kd in test [5] came out at 24.4 µM; in [13] it was 141 µM; in test [6], 8.32 µM.
As for “ARHGEF12-1, PDZ domain of ARHGEF12 (from UniProt Q9NZN5 1-1544) (domain or fragment)”, in test [8], the Kd came to 3.96 µM.
As for MAST2-1 (domain or fragment), the Kd with PTEN_11 (human) is 13 µM; in the test with PTEN_Ac (human) it was 4 µM; in the test with PTEN_KR (human) it was 7 µM.
As to “PTEN_Ac, 11-mer PTEN PDZ-binding motif peptide acetylated at K402”, the Kd stood at 65.5 µM in test [1]; 70.2 µM in test [2]; 10.2 µM in test [11]; 7.4 µM in [3]; 2.56 µM in test [12]; 45.3 µM in [4]. For the same substance, the Kd in test [5] was found to be 14.5 µM; in test [13] it was 377 µM; in [6] it was 4.07 µM.
In test [7], “SNTG2-1, PDZ domain of SNTG2 (from UniProt Q9NY99 1-539) (domain or fragment)” showed a Kd of 21.9 µM.
As to “MAGI3-2 (from UniProt Q5TCQ9 410-492) (domain or fragment)”, the Kd with PTEN_Ac (human) is 39 µM.

The values are drawn from publication PMC7774954, “Interactomic affinity profiling by holdup assay: Acetylation and distal residues impact the PDZome-binding specificity of PTEN phosphatase” (PLoS ONE, 2020).
